Assay results taken from patent US20090196872A1.

B1: human anti-M2 monoclonal antibody C40G1 (antibody)
chain 1: QLQLQESGPGLVKPSETLSLTCTVSGGSISSSFYYCGWIRQPPGKGLEWIGSIYYRGSTYYNPSLKSRVTISVDTSKNQFSLKLSSVTAADTAVYYCARRVTMVRGVKGDYFDYWGQGTLVTVSS
chain 2: DIQMTQSPSSLSASVGDRVTITCRASQGISSWLAWYQQKPEKVPKSLIYAASSLQSGVPSRFSGSGSGTDFTLTISSLQPEDFATYYCQQYNYYPLTFGGGTKVEIKR
B2: human anti-M2 monoclonal antibody L66 (antibody)
chain 1: EVQLVESGGGVVRPGGSLRLSCAASGFTFDDYGMSWVRQAPGKGLEWVSGINWNGGSTGYADSVKGRFTISRDNAKNSLYLQMNSLRAEDTALYYCARDRVTMVRGVIMDYYGMDVWGQGTTVTVSS
chain 2: QTVVTQEPSLTVSPRGTVTLTCSSSTGAVTSGYYPGWFQLKPGQAPMSLIYSARKKHSWTPARFSGSLLGGKAALTLSGVQPEDEAEYYCLLYYGGAYVFGTGTKVTVLG

Columns and labels:
[1] = target: M2 protein expressed on A/HK/1/68 infected MDCK cells (influenza A virus A/HK/1/68); experiment: cell-based ELISA, half-saturating antibody concentration; conditions: remark: other sources report otherwise
[2] = target: M2 truncated peptide CM15 (influenza A virus); experiment: peptide ELISA, antibody at 10 ug/ml
[3] = target: M2 truncated peptide NM12 (N-terminal 12-amino acid peptide) (influenza A virus); experiment: peptide ELISA, antibody at 10 ug/ml
[4] = target: M2 truncated peptide NN9 (influenza A virus); experiment: peptide ELISA, antibody at 10 ug/ml
[5] = target: M2 truncated peptide M12 (influenza A virus); experiment: peptide ELISA, antibody at 10 ug/ml
[6] = target: M2 truncated peptide NM10 (influenza A virus); experiment: peptide ELISA, antibody at 10 ug/ml
[7] = target: M2 truncated peptide NM13 (influenza A virus); experiment: peptide ELISA, antibody at 10 ug/ml
[8] = target: M2 truncated peptide NM14 (influenza A virus); experiment: peptide ELISA, antibody at 10 ug/ml
[9] = target: M2 truncated peptide CM14 (influenza A virus); experiment: peptide ELISA, antibody at 10 ug/ml
[10] = target: M2 truncated peptide M16 (influenza A virus); experiment: peptide ELISA, antibody at 10 ug/ml
[11] = target: M2 truncated peptide CM12 (influenza A virus); experiment: peptide ELISA, antibody at 10 ug/ml
[12] = target: M2 truncated peptide CM13 (influenza A virus); experiment: peptide ELISA, antibody at 10 ug/ml
[13] = target: M2 peptide (extracellular 23-amino-acid peptide of influenza virus matrix M2 protein) (influenza A virus); experiment: peptide ELISA, antibody at 10 ug/ml
[14] = target: M2 truncated peptide NM8 (influenza A virus); experiment: peptide ELISA, antibody at 10 ug/ml
[15] = target: M2 truncated peptide M15 (influenza A virus); experiment: peptide ELISA, antibody at 10 ug/ml
[16] = target: M2 truncated peptide NN15 (influenza A virus); experiment: peptide ELISA, antibody at 10 ug/ml
[17] = target: M2 truncated peptide NM16 (influenza A virus); experiment: peptide ELISA, antibody at 10 ug/ml
[18] = target: M2 truncated peptide NM11 (influenza A virus); experiment: peptide ELISA, antibody at 10 ug/ml
[19] = target: M2 truncated peptide CM16 (influenza A virus); experiment: peptide ELISA, antibody at 10 ug/ml
[20] = target: M2 truncated peptide NM7 (influenza A virus); experiment: peptide ELISA, antibody at 10 ug/ml
[21] = target: M2 truncated peptide CM17 (influenza A virus); experiment: peptide ELISA, antibody at 10 ug/ml
[22] = target: M2 truncated peptide NM17 (influenza A virus); experiment: peptide ELISA, antibody at 10 ug/ml

Binder | Kd [1] | ELISA (OD450) [2] | ELISA (OD450) [3] | ELISA (OD450) [4] | ELISA (OD450) [5] | ELISA (OD450) [6] | ELISA (OD450) [7] | ELISA (OD450) [8] | ELISA (OD450) [9] | ELISA (OD450) [10] | ELISA (OD450) [11] | ELISA (OD450) [12] | ELISA (OD450) [13] | ELISA (OD450) [14] | ELISA (OD450) [15] | ELISA (OD450) [16] | ELISA (OD450) [17] | ELISA (OD450) [18] | ELISA (OD450) [19] | ELISA (OD450) [20] | further results
B1 | 0.542 nM | 0.1 OD450 | 0.16 OD450 | 0.13 OD450 | 1.95 OD450 | 0.11 OD450 | 1.82 OD450 | 1.93 OD450 | 0.1 OD450 | 1.75 OD450 | 0.11 OD450 | 0.11 OD450 | 2.38 OD450 | 0.1 OD450 | 1.93 OD450 | 2.67 OD450 | 2.17 OD450 | 0.15 OD450 | 1.41 OD450 | 0.09 OD450 | ELISA (OD450) [21]: 3.01 OD450; ELISA (OD450) [22]: 2.18 OD450
B2 | 0.531 nM | 0.13 OD450 | 0.12 OD450 | 0.16 OD450 | 0.19 OD450 | 0.16 OD450 | 0.17 OD450 | 0.16 OD450 | 0.13 OD450 | 0.27 OD450 | 0.16 OD450 | 0.15 OD450 | 1.04 OD450 | 0.18 OD450 | 0.2 OD450 | 0.28 OD450 | 2.52 OD450 | 0.17 OD450 | 0.13 OD450 | 0.18 OD450 | ELISA (OD450) [21]: 0.14 OD450; ELISA (OD450) [22]: 1.92 OD450
